Reference: patent US20170326249A1 (Bristol-Myers Squibb, published 2017)
Residue numbers refer to the chain shown, from its start. Each block holds one binder with its values, some of them ahead of it.

Molecular target: T1, Glypican-3 (UniProt P51654 25-559, limits assumed)
T1 construct: also called GPC3
Assay: Biacore (SPR)

- Kd: 0.9 nM
- koff: 0.0016 s⁻¹
- kon: 1.7e+06 M⁻¹ s⁻¹
B1: Antibody C (antibody, human IgG1, kappa, V domains shown)
VH: EVQLVQSGAEVKKPGESLKISCKGSGYSFTRYWIAWVRQMPGKGLEWMGIIFPGDSHTGYSPSFQGQVTISADRSISTAYLQWSSLKASDTAMYYCARTREGYFDYWGQGTLVTVSS
VL: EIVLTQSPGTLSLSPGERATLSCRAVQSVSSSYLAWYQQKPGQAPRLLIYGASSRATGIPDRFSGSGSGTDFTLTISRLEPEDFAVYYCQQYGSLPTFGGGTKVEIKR
notes: Variable-region variant of GPC3.1, IgG1/kappa; also called variant antibody C

- Kd: 2.2 nM
- koff: 0.0036 s⁻¹
- kon: 1.7e+06 M⁻¹ s⁻¹
B2: Antibody B (antibody, human IgG1, kappa, V domains shown)
VH: B1 VH with Q65R, R74K
VL: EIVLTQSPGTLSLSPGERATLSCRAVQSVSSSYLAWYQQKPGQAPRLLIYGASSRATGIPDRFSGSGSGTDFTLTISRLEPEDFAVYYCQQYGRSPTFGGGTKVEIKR
notes: Variable-region variant of GPC3.1, IgG1/kappa; also called variant antibody B

- Kd: 2.7 nM
- koff: 0.0029 s⁻¹
- kon: 1.1e+06 M⁻¹ s⁻¹
B3: Antibody A (antibody, human IgG1, kappa, V domains shown)
VH: B1 VH with R31S, S77R, E101Q
VL: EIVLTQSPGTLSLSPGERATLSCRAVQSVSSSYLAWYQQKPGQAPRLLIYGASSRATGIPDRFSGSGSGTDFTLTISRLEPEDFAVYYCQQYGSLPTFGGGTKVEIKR
notes: Variable-region variant of GPC3.1, IgG1/kappa; also called variant antibody A
